These are literature values, as cited in publication PMC12583094, “A novel antioxidant peptide from black soybean [Glycine max (L.) Merr.] with verified MPO interaction and multi-scale antioxidant activity” (Frontiers in Nutrition, 2025).

The subject of the series is MPO. An excerpt:
The RU values increased from approximately 0.79 RU to around 24.51 RU with increasing concentrations.

B1: ceruloplasmin: a physiological MPO inhibitor (protein, UniProt P00450 20-1065, looked up)
Ceruloplasmin: KEKHYYIGIIETTWDYASDHGEKKLISVDTEHSNIYLQNGPDRIGRLYKKALYLQYTDETFRTTIEKPVWLGFLGPIIKAETGDKVYVHLKNLASRPYTFHSHGITYYKEHEGAIYPDNTTDFQRADDKVYPGEQYTYMLLATEEQSPGEGDGNCVTRIYHSHIDAPKDIASGLIGPLIICKKDSLDKEKEKHIDREFVVMFSVVDENFSWYLEDNIKTYCSEPEKVDKDNEDFQESNRMYSVNGYTFGSLPGLSMCAEDRVKWYLFGMGNEVDVHAAFFHGQALTNKNYRIDTINLFPATLFDAYMVAQNPGEWMLSCQNLNHLKAGLQAFFQVQECNKSSSKDNIRGKHVRHYYIAAEEIIWNYAPSGIDIFTKENLTAPGSDSAVFFEQGTTRIGGSYKKLVYREYTDASFTNRKERGPEEEHLGILGPVIWAEVGDTIRVTFHNKGAYPLSIEPIGVRFNKNNEGTYYSPNYNPQSRSVPPSASHVAPTETFTYEWTVPKEVGPTNADPVCLAKMYYSAVEPTKDIFTGLIGPMKICKKGSLHANGRQKDVDKEFYLFPTVFDENESLLLEDNIRMFTTAPDQVDKEDEDFQESNKMHSMNGFMYGNQPGLTMCKGDSVVWYLFSAGNEADVHGIYFSGNTYLWRGERRDTANLFPQTSLTLHMWPDTEGTFNVECLTTDHYTGGMKQKYTVNQCRRQSEDSTFYLGERTYYIAAVEVEWDYSPQREWEKELHHLQEQNVSNAFLDKGEFYIGSKYKKVVYRQYTDSTFRVPVERKAEEEHLGILGPQLHADVGDKVKIIFKNMATRPYSIHAHGVQTESSTVTPTLPGETLTYVWKIPERSGAGTEDSACIPWAYYSTVDQVKDLYSGLIGPLIVCRRPYLKVFNPRRKLEFALLFLVFDENESWYLDDNIKTYSDHPEKVNKDDEEFIESNKMHAINGRMFGNLQGLTMHVGDEVNWYLMGMGNEIDLHTVHFHGHSFQYKHRGVYSSDVFDIFPGTYQTLEMFPRTPGIWLLHCHVTDHIHAGMETTYTVLQNEDTKSG
As for B1, the “binding to MPO by SPR” value was “clear dose-dependent binding effect”.
